Assay [1] deals with T1, fibroblast growth factor receptor 1 (FGFR1), preparation not stated (UniProt P11362 22-376, limits assumed).
T1 construct: also called FGF receptor; FGFR1 receptor
T1 sequence (looked up): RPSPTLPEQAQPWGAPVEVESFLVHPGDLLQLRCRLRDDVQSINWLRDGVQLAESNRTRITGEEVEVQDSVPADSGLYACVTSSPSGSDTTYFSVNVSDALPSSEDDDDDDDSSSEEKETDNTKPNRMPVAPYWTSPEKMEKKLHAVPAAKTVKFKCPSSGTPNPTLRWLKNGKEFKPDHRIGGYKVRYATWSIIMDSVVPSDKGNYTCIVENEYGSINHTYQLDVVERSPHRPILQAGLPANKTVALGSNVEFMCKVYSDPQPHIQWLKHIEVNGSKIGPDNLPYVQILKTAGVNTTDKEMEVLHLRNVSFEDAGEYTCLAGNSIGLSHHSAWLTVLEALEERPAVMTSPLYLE
Description: method not stated; antibody from the CHO-OM8-21 cell line; antibody from the CHO-OM8-21 cell line.

The target of assay [2] is T2, recombinant FGFR1 antigen (on the SPR chip; PA-269#37 or Sino Biologicals #10616-H08H, not told which) (human, UniProt P11362-7 22-374).
T2 sequence (looked up): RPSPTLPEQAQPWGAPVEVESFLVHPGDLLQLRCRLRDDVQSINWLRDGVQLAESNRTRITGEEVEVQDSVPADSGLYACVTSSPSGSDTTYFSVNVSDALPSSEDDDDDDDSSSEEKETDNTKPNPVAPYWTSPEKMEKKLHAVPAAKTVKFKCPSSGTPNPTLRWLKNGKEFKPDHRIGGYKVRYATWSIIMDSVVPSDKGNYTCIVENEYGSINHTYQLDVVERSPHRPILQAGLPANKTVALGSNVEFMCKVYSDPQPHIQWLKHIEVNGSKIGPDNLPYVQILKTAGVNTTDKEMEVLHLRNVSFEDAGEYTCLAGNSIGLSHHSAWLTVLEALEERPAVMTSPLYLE
The assay can be described thus: SPR (BIAcore T100), FGFR1 on a CM5 chip, antibody in flow, 1:1 model. As to the method:
Analysis of surface plasmon resonance was performed using the BIAcore T100 System Operation Kit (BIAcore; GE Healthcare). […] Different antibody variants were diluted in HBS-P buffer (10 mmol/L HEPES, pH 7.4, 0.15 mol/L NaCl and 0.05% surfactant P20) and passed over the sensor chip surface (25 μl/min). The sensory surface was washed with HBS-P buffer, and then regenerated using 10 mmol/L glycine-HCl (pH 2). Different antibody concentrations were tested ([…]). Different cyclic kinetic properties were determined, and the results were analyzed using the 1:1 (Langmuir) binding model, inclusive of the association rate constant (Kₒₙ), dissociation rate constant (Koff) and dissociation constant (Kd) (Biacore, GE Healthcare).

B1: humanized anti-FGFR1 antibody OM-RCA-01 (VH3/VL5) (antibody, human IgG1, kappa, V domains shown)
VH: QVQLQESGPGLVKPSQTLSLTCTVSGYSITSDYAWSWIRQHPGKGLEWIGYITYSGTTYYNPSLKSRVTISVDTSKNQFSLKLSSVTAADTAVYYCARDGNYFDYWGQGTLVTVSS
VL: DIQLTQSPSFLSASVGDRVTITCRASSSVSSSYLHWYQQKPGKAPKLLIYRTSTLQSGVPSRFSGSGSGTEFTLTISSLQPEDFATYYCQQWSGYPLTFGGGTKVEIKR
notes: Human IgG1 (IGHG1*03) / kappa; also called VH3A/L5; OM1
For the molecule B1, the Kd in assay [1] turned out to be 9.27 nM; in assay [2], 1.59 nM.

As a reminder, the Kd is the free concentration of one partner at which half of the binding sites on the other are occupied at equilibrium, for simple one-to-one binding.

For the origin of these results see patent US20180355045A1 (LIMITED LIABILITY COMPANY ONCOMAX LLC ONCOMAX, published 2018).
